Here are results for 1 molecule from article PMC5414174, “DNA replication licensing factor Cdc6 and Plk4 kinase antagonistically regulate centrosome duplication via Sas-6” (Nature Communications, 2017).

The target of this assay is T1, GST-tagged Plk4 (human, UniProt O00444 1-970).
T1 construct: human Plk4, cloned from a cDNA library by PCR into pGEX 4T-1; also called GST-Plk4; source: E. coli BL21, purified (glutathione Sepharose 4B); not shown: GST, N-terminal, kept
T1 sequence (looked up): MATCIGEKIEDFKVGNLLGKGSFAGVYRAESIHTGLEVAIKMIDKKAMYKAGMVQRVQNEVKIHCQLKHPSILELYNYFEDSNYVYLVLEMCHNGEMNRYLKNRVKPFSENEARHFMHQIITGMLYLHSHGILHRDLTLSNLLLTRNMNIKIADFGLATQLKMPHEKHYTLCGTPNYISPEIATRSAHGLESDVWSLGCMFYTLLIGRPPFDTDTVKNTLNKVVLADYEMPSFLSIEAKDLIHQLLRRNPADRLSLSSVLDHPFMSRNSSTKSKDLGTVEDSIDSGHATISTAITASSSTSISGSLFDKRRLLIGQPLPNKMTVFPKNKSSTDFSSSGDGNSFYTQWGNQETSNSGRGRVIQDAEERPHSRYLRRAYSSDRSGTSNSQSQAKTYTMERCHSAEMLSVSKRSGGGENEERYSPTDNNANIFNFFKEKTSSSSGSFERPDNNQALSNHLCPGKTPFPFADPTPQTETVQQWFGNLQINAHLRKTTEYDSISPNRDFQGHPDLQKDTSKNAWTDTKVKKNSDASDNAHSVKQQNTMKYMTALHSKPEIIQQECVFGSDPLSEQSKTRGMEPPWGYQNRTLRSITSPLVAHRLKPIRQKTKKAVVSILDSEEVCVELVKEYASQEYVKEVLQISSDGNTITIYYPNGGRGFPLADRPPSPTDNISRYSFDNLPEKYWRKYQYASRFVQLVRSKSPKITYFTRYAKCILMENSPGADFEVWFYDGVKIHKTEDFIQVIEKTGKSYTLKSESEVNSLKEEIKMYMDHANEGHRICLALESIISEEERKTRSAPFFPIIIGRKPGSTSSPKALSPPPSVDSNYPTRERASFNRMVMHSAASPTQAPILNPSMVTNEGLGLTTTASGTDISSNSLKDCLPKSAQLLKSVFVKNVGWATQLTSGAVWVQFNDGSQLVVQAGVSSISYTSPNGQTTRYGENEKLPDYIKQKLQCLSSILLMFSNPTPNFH
Briefly: pull-down; Sepharose beads coupled with purified GST-Plk4 incubated with purified His-Cdc6; western blot with His antibody. To be noted: both partners purified. For orientation: A western blot detects proteins with antibodies after separation by electrophoresis.

B1: His-tagged Cdc6 (purified) (natural protein, human, UniProt Q99741 1-560, looked up)
chain: MPQTRSQAQATISFPKRKLSRALNKAKNSSDAKLEPTNVQTVTCSPRVKALPLSPRKRLGDDNLCNTPHLPPCSPPKQGKKENGPPHSHTLKGRRLVFDNQLTIKSPSKRELAKVHQNKILSSVRKSQEITTNSEQRCPLKKESACVRLFKQEGTCYQQAKLVLNTAVPDRLPAREREMDVIRNFLREHICGKKAGSLYLSGAPGTGKTACLSRILQDLKKELKGFKTIMLNCMSLRTAQAVFPAIAQEICQEEVSRPAGKDMMRKLEKHMTAEKGPMIVLVLDEMDQLDSKGQDVLYTLFEWPWLSNSHLVLIGIANTLDLTDRILPRLQAREKCKPQLLNFPPYTRNQIVTILQDRLNQVSRDQVLDNAAVQFCARKVSAVSGDVRKALDVCRRAIEIVESDVKSQTILKPLSECKSPSEPLIPKRVGLIHISQVISEVDGNRMTLSQEGAQDSFPLQQKILVCSLMLLIRQLKIKEVTLGKLYEAYSKVCRKQQVAAVDQSECLSLSGLLEARGILGLKRNKETRLTKVFFKIEEKEIEHALKDKALIGNILATGLP
notes: human Cdc6; also called His-Cdc6; source: E. coli BL21, purified (His60 Ni Superflow resin)
Turning to B1, the binding result is recorded as “binds”.
